Reference: US20230212587A1, “Mutant Hydroxyphenylpyruvate Dioxygenase Polypeptide, Encoding Gene Thereof and Use Therefor” (Beijing Dabeinong Biotechnology Co., Ltd., priority 2019, published 2023)

Test system: Arabidopsis thaliana T1 plants
Assay: Topramezone tolerance of transgenic Arabidopsis thaliana T1 plants (pesticide damage grade by bleached leaf area, score, resistance evaluation)
Type: in vivo
Set-up: score: scale not given here
Details: for Resistance evaluation / Scores / Classification and statistics of pesticide damage grade: Grade 0 / Classification and statistics of pesticide damage grade: Grade 1 / Classification and statistics of pesticide damage grade: Grade 2 / Classification and statistics of pesticide damage grade: Grade 3: HPPDs from ecotypes of Triticum aestivum; for Classification and statistics of pesticide damage grade: Grade 0 / Classification and statistics of pesticide damage grade: Grade 1 / Classification and statistics of pesticide damage grade: Grade 2 / Classification and statistics of pesticide damage grade: Grade 3 / Grade 0 / Grade 1 / Grade 2 / Grade 3: number of plants; for Resistance Grade / score / Grade 0 / Grade 1 / Grade 2 / Grade 3: HPPD from Avena sativa source
Method in brief: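 Herbicide tolerance was judged per plant on a bleaching scale (grade 0 no bleaching to grade 3 fully bleached) 7 DAT. Topramezone doses were 0, 25, 50 and 100 g ai/ha on 18-day-old T1 and wild-type plants.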

| Molecule | Resistance evaluation (topramezone 25 g ai/ha (1x)) | Scores (topramezone 25 g ai/ha (1x)) | Classification and statistics of pesticide damage grade: Grade 0 (topramezone 25 g ai/ha (1x)) | Classification and statistics of pesticide damage grade: Grade 1 (topramezone 25 g ai/ha (1x)) | Classification and statistics of pesticide damage grade: Grade 2 (topramezone 25 g ai/ha (1x)) | Classification and statistics of pesticide damage grade: Grade 3 (topramezone 25 g ai/ha (1x)) | Resistance evaluation (topramezone 100 g ai/ha (4x)) | Scores (topramezone 100 g ai/ha (4x)) | Classification and statistics of pesticide damage grade: Grade 0 (topramezone 100 g ai/ha (4x)) | Classification and statistics of pesticide damage grade: Grade 1 (topramezone 100 g ai/ha (4x)) | Classification and statistics of pesticide damage grade: Grade 2 (topramezone 100 g ai/ha (4x)) | Classification and statistics of pesticide damage grade: Grade 3 (topramezone 100 g ai/ha (4x)) | Resistance Grade (topramezone 25 g ai/ha (1x)) | score (topramezone 25 g ai/ha (1x)) | Grade 0 (topramezone 25 g ai/ha (1x)) | Grade 1 (topramezone 25 g ai/ha (1x)) | Grade 2 (topramezone 25 g ai/ha (1x)) | Grade 3 (topramezone 25 g ai/ha (1x)) | Resistance Grade (topramezone 50 g ai/ha (2x)) | score (topramezone 50 g ai/ha (2x)) | also measured |
| --- | --- | --- | --- | --- | --- | --- | --- | --- | --- | --- | --- | --- | --- | --- | --- | --- | --- | --- | --- | --- | --- |
| TaHPPD6-02: native HPPD of Triticum aestivum ecotype 6, UniProt A0A3B5YPS5, SEQ ID NO: 207 (protein, listed as Triticum aestivum, TaHPPD6 Amino Acid Sequence) MVRFNPGSDRFHTLAFHHIEFWCTDAASADGRFAFSLGAPLAARSDLSTGNSTHASQLLRPGSLAFLFTAPYANGCIFSVDAARRFFADHGLAVRSVALRVADAAKAFRASVDGGARPAFAPVDLGRGFGFAEVKLYGDVVLRFVSHPDGTDVPFLPGLFEGVSNPGAVHYGLTRFDHIVGNVPELAPAAAYVAGLTGFHEFAEFTTEDVGTAQSGLNSVVLANTSEGVPLLLNEPVHGTKRRRQIQTFLEHHGGPGVQHIAVASSEVFRTLREMHARSSMGGFDFLPPPLPKYYEGVRRLAGDVLSEAQIKECQELGVLVNRDDQGVLLQIFTKPVGDRPTFFLEMIQRIGCMEKDERGEEYQKGGCGGFGKGNISELFKSIEDYEKSLEAKQSAAVQGSYI | non-resistant (non-resistant plants (scores 68-100)) | 88 | 0 | 0 | 6 | 10 | non-resistant (non-resistant plants (scores 68-100)) | 96 | 0 | 0 | 2 | 14 | – | – | – | – | – | – | – | – | – |
| TaHPPD6m-F372A-02: Triticum aestivum ecotype 6 HPPD mutant F372A, SEQ ID NO: 210 (protein, TaHPPD6m-F372A Amino Acid Sequence) MVRFNPGSDRFHTLAFHHIEFWCTDAASADGRFAFSLGAPLAARSDLSTGNSTHASQLLRPGSLAFLFTAPYANGCIFSVDAARRFFADHGLAVRSVALRVADAAKAFRASVDGGARPAFAPVDLGRGFGFAEVKLYGDVVLRFVSHPDGTDVPFLPGLFEGVSNPGAVHYGLTRFDHIVGNVPELAPAAAYVAGLTGFHEFAEFTTEDVGTAQSGLNSVVLANTSEGVPLLLNEPVHGTKRRRQIQTFLEHHGGPGVQHIAVASSEVFRTLREMHARSSMGGFDFLPPPLPKYYEGVRRLAGDVLSEAQIKECQELGVLVNRDDQGVLLQIATKPVGDRPTFFLEMIQRIGCMEKDERGEEYQKGGCGGFGKGNISELFKSIEDYEKSLEAKQSAAVQGSYI | highly resistant (highly resistant plants (scores 0-15)) | 0 | 16 | 0 | 0 | 0 | highly resistant (highly resistant plants (scores 0-15)) | 2 | 15 | 1 | 0 | 0 | – | – | – | – | – | – | – | – | – |
| F372L (protein, listed as Avena sativa, AsHPPD Amido Acid Sequence) MPPTPATATGAAAAAVTPEHAARSFPRVVRVNPRSDRFPVLSFHHVELWCADAASAAGRFSFALGAPLAARSDLSTGNSAHASLLLRSGALAFLFTAPYAPPPQEAATAAATASIPSFSADAARTFAAAHGLAVRSVGVRVADAAEAFRVSVAGGARPAFAPADLGHGFGLAEVELYGDVVLRFVSYPDETDLPFLPGFERVSSPGAVDYGLTRFDHVVGNVPEMAPVIDYMKGFLGFHEFAEFTAEDVGTTESGLNSVVLANNSEAVLLPLNEPVHGTKRRSQIQTYLEYHGGPGVQHIALASNDVLRTLREMRARTPMGGFEFMAPPQAKYYEGVRRIAGDVLSEEQIKECQELGVLVDRDDQGVLLQILTKPVGDRPTFFLEMIQRIGCMEKDEVGQEYQKGGCGGFGKGNFSELFKSIEDYEKSLEVKQSVVAQKS | – | – | – | – | – | – | – | – | – | – | – | – | Highly resistant | 0 | 20 | 0 | 0 | 0 | Highly resistant | 0 | Grade 0 (topramezone 50 g ai/ha (2x)): 20; Grade 1 (topramezone 50 g ai/ha (2x)): 0; Grade 2 (topramezone 50 g ai/ha (2x)): 0; Grade 3 (topramezone 50 g ai/ha (2x)): 0; Resistance Grade (topramezone 100 g ai/ha (4x)): Moderately resistant; score (topramezone 100 g ai/ha (4x)): 30; Grade 0 (topramezone 100 g ai/ha (4x)): 6; Grade 1 (topramezone 100 g ai/ha (4x)): 10; Grade 2 (topramezone 100 g ai/ha (4x)): 4; Grade 3 (topramezone 100 g ai/ha (4x)): 0 |
| F372P (protein, listed as Avena sativa, AsHPPD Amido Acid Sequence) MPPTPATATGAAAAAVTPEHAARSFPRVVRVNPRSDRFPVLSFHHVELWCADAASAAGRFSFALGAPLAARSDLSTGNSAHASLLLRSGALAFLFTAPYAPPPQEAATAAATASIPSFSADAARTFAAAHGLAVRSVGVRVADAAEAFRVSVAGGARPAFAPADLGHGFGLAEVELYGDVVLRFVSYPDETDLPFLPGFERVSSPGAVDYGLTRFDHVVGNVPEMAPVIDYMKGFLGFHEFAEFTAEDVGTTESGLNSVVLANNSEAVLLPLNEPVHGTKRRSQIQTYLEYHGGPGVQHIALASNDVLRTLREMRARTPMGGFEFMAPPQAKYYEGVRRIAGDVLSEEQIKECQELGVLVDRDDQGVLLQIPTKPVGDRPTFFLEMIQRIGCMEKDEVGQEYQKGGCGGFGKGNFSELFKSIEDYEKSLEVKQSVVAQKS | – | – | – | – | – | – | – | – | – | – | – | – | Highly resistant | 0 | 20 | 0 | 0 | 0 | Highly resistant | 0 | Grade 0 (topramezone 50 g ai/ha (2x)): 20; Grade 1 (topramezone 50 g ai/ha (2x)): 0; Grade 2 (topramezone 50 g ai/ha (2x)): 0; Grade 3 (topramezone 50 g ai/ha (2x)): 0; Resistance Grade (topramezone 100 g ai/ha (4x)): Moderately resistant; score (topramezone 100 g ai/ha (4x)): 33; Grade 0 (topramezone 100 g ai/ha (4x)): 4; Grade 1 (topramezone 100 g ai/ha (4x)): 12; Grade 2 (topramezone 100 g ai/ha (4x)): 4; Grade 3 (topramezone 100 g ai/ha (4x)): 0 |
| TaHPPD7-02: native HPPD of Triticum aestivum ecotype 7, UniProt A7WK82, SEQ ID NO: 213 (protein, listed as Triticum aestivum, TaHPPD7 Amino Acid Sequence) MPPTPTTPAATGAAAAAAVTPEHARPRRMVRFNPRSDRFHTLAFHHVEFWCADAASAAGRFAFALGAPLAARSDLSTGNSVHASQLLRSGNLAFLFTAPYANGCDAATASLPSFSADAARRFSADHGLAVRSIALRVADAAEAFRASVDGGARPAFSPVDLGRGFGFAEVELYGDVVLRFVSHPDGTDVPFLPGFEGVSNPDAVDYGLTRFDHVVGNVPELAPAAAYVAGFTGFHEFAEFTTEDVGTAESGLNSMVLANNSEGVLLPLNEPVHGTKRRSQIQTFLEHHGGPGVQHIAVASSDVLRTLREMRARSAMGGFDFLPPPLPKYYEGVRRIAGDVLSEAQIKECQELGVLVDRDDQGVLLQIFTKPVGDRPTCSWR | non-resistant (non-resistant plants (scores 68-100)) | 100 | 0 | 0 | 0 | 16 | non-resistant (non-resistant plants (scores 68-100)) | 100 | 0 | 0 | 0 | 16 | – | – | – | – | – | – | – | – | – |
| TaHPPD7m-F372A-02: Triticum aestivum ecotype 7 HPPD mutant F372A, SEQ ID NO: 216 (protein, TaHPPD7m-F372A Amino Acid Sequence) MPPTPTTPAATGAAAAAAVTPEHARPRRMVRFNPRSDRFHTLAFHHVEFWCADAASAAGRFAFALGAPLAARSDLSTGNSVHASQLLRSGNLAFLFTAPYANGCDAATASLPSFSADAARRFSADHGLAVRSIALRVADAAEAFRASVDGGARPAFSPVDLGRGFGFAEVELYGDVVLRFVSHPDGTDVPFLPGFEGVSNPDAVDYGLTRFDHVVGNVPELAPAAAYVAGFTGFHEFAEFTTEDVGTAESGLNSMVLANNSEGVLLPLNEPVHGTKRRSQIQTFLEHHGGPGVQHIAVASSDVLRTLREMRARSAMGGFDFLPPPLPKYYEGVRRIAGDVLSEAQIKECQELGVLVDRDDQGVLLQIATKPVGDRPTCSWR | highly resistant (highly resistant plants (scores 0-15)) | 8 | 12 | 4 | 0 | 0 | moderately resistant (moderately resistant plants (scores 16-33)) | 21 | 6 | 10 | 0 | 0 | – | – | – | – | – | – | – | – | – |
